Test results from article PMC2754381.

B1: MtOMPDC (wildtype OMPDC from Methanothermobacter thermautotrophicus) (Methanothermobacter thermautotrophicus str. Delta H) (protein)
chain: MRSRRVDVMDVMNRLILAMDLMNRDDALRVTGEVREYIDTVKIGYPLVLSEGMDIIAEFRKRFGCRIIADFKVADIPETNEKICRATFKAGADAIIVHGFRGADSVRACLNVAEEMGREVFLLTEMSHPGAEMFIQGAADEIARMGVDLGVKNYVGPSTRPERLSRLREIIGQDSFLISPGVGAQGGDPGETLRFADAIIVGRSIYLADNPAAAAAGIIESIKDLLNP
B2: ScOMPDC (C155S mutant OMPDC from Saccharomyces cerevisiae) (Saccharomyces cerevisiae S288C; C155S) (protein)
chain: MSKATYKERAATHPSPVAAKLFNIMHEKQTNLCASLDVRTTKELLELVEALGPKICLLKTHVDILTDFSMEGTVKPLKALSAKYNFLLFEDRKFADIGNTVKLQYSAGVYRIAEWADITNAHGVVGPGIVSGLKQAAEEVTKEPRGLLMLAELSSKGSLATGEYTKGTVDIAKSDKDFVIGFIAQRDMGGRDEGYDWLIMTPGVGLDDKGDALGQQYRTVDDVVSTGSDIIIVGRGLFAKGRDAKVEGERYRKAGWEAYLRRCGQQN

Assays:
purified protein [1] = substrate: O=C(O)c1cc(=O)[nH]c(=O)n1[C@@H]1O[C@H](COP(=O)(O)O)[C@@H](O)[C@H]1O; assay: purified protein; assay type: biochemical, Methanothermobacter thermautotrophicus; conditions: 25 °C, pH 7.1, 10 mM MOPS, I = 0.1 (NaCl)
purified protein [2] = substrate: O=C(O)c1cc(=O)[nH]c(=O)n1[C@@H]1O[C@H](COP(=O)(O)O)[C@@H](O)[C@H]1O; assay: purified protein; assay type: biochemical, Saccharomyces cerevisiae; conditions: 25 °C, pH 7.1, 10 mM MOPS, I = 0.1 (NaCl)

Row | Protein | Km (purified protein [1]) | kcat (purified protein [1]) | kcat/Km (purified protein [1]) | Km (purified protein [2]) | kcat (purified protein [2]) | kcat/Km (purified protein [2])
1 | B1 | 1.5 ± 0.2 µM | 4.7 ± 0.3 s⁻¹ | 3.1e+06 ± 300000 M⁻¹ s⁻¹ |  |  | 
2 | B2 |  |  |  | 1.4 ± 0.2 µM | 15 ± 1 s⁻¹ | 1.1e+07 ± 1e+06 M⁻¹ s⁻¹
